Source: paper PMC4900556, “Connexin43 Forms Supramolecular Complexes through Non-Overlapping Binding Sites for Drebrin, Tubulin, and ZO-1” (PLoS ONE, 2016)

Assays:
[1] = biological target: T1, 15N-labeled Cx43-CT^234-382 (WT), GST tag cleaved (UniProt P08050 234-382, 15N-labeled); assay: NMR titration; 15N-HSQC, 600 MHz; 15N-labeled Cx43-CT constant at 50 μM in 1X PBS pH 7.5, unlabeled Drb^1-300 added from 50 to 700 μM; KD by nonlinear fitting of the decrease in signal intensity of at least three residues of each area; settings: both partners purified
T1 construct: Construct used in the NMR titrations; source: E. coli BL21 DE3, purified (glutathione agarose), GST tag cleaved on the beads with Turbo 3C
T1 sequence (P08050 234-382): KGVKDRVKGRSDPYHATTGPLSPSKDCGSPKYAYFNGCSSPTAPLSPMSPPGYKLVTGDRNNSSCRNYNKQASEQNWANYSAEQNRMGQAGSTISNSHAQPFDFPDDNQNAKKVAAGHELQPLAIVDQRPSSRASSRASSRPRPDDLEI

[2] = biological target: 15N-labeled Cx43CT^234-382 Y265D, GST tag cleaved (UniProt P08050); assay: as above
Chain of 15N-labeled Cx43CT^234-382 Y265D, GST tag cleaved (UniProt P08050) (P08050 234-382 Y265D): as the sequence (P08050 234-382) above, with Y32D counted along it

[3] = biological target: 15N-labeled Cx43CT^234-382 Y265D, GST tag cleaved (UniProt P08050 234-382, Y265D, 15N-labeled); assay: NMR; Area 3 (residues K303, N312, S314)

B1: Drebrin A 1–300 (Drb^1-300), untagged (domain or fragment, UniProt Q9QXS6 1-300, looked up)
chain: MAGVSFSGHRLELLAAYEEVIREESAADWALYTYEDGSDDLKLAASGEGGLQELSGHFENQKVMYGFCSVKDSQAALPKYVLINWVGEDVPDARKCACASHVAKVAEFFQGVDVIVNASSVEDIDAGAIGQRLSNGLARLSSPVLHRLRLREDENAEPVGTTYQKTDAAVEMKRINREQFWEQAKKEEELRKEEERKKALDARLRFEQERMEQERQEQEERERRYREREQQIEEHRRKQQSLEAEEAKRRLKEQSIFGDQRDEEEESQMKKSESEVEEAAAIIAQRPDNPREFFRQQERV
notes: Drebrin A residues 1-300; also called drebrin amino acids 1–300; N-terminal fragment of drebrin; source: E. coli Rosetta cells, purified on glutathione-agarose column, GST tag digested and captured with a Thrombin kit
KD of Area 1 (264–275) [1]: 283 µM
KD of Area 2 (282–290) [1]: 279 µM
KD of Area 3 (299–321) [1]: 344 µM
KD of Area 3 [2]: 500 µM
Kd [3]: 466 µM
